Measured values published in US20030186281A1, “Modified tetracycline repressor protein compositions and methods of use” (priority 2001, published 2003).
Numbering of substitutions follows the chain as printed. Names may count otherwise.

B1: Clone 4b (protein)
chain: MSRLDKSKVINSALELLNEVGIEGLTTRKLAQKLGVEQPTLYWHVKNKRALLDALAVEILARHHDYSLPAAGESWQSFLRNNAMSFRRALLRYRDRAKVHLGTRPDEKQYDTVETQLRFMTENGFSLRDGLYAISAVSHFTLGAVLEQQEHTAALTDRPAAPDENLPPLLREALQIMDSDDGEQAFLHGLESLIRGFEVQLTALLQIV
modifications: revTetR4b
B2: Clone 11 (protein)
chain: B1 chain with R96G, V99E
modifications: revTetR11
B3: TetRrevAD1/2: revTetR(BD) N18Y L52L D53Y A54A I59T (protein)
chain: B1 chain with N18Y, D53Y, I59T, R96G
modifications: Modified tetracycline repressor
notes: revTetR(BD) N18Y L52L D53Y A54A I59T
B4: TetRrevAD1/6: revTetR(BD) N18Y E23V D53A A54S L55L A56S A61T H63Y (protein)
chain: B1 chain with N18Y, E23V, D53A, A54S, A56S, A61T, H63Y, R96G
modifications: Modified tetracycline repressor
notes: revTetR(BD) N18Y E23V D53A A54S L55L A56S A61T H63Y
B5: TetRrevAF1/7: revTetR(BD) G96R L101I (protein)
chain: B1 chain with L101I
modifications: Modified tetracycline repressor
notes: revTetR(BD) G96R L101I
B6: TetRrevAF1/8: revTetR(BD) G24G Y93N L101F G102D (protein)
chain: B1 chain with Y93N, R96G, L101F, G102D
modifications: Modified tetracycline repressor
notes: revTetR(BD) G24G Y93N L101F G102D
B7: TetRrevAF1/11: revTetR(BD) L14I V20V I22L R94H A97A V99E (protein)
chain: B1 chain with L14I, I22L, R94H, R96G, V99E
modifications: Modified tetracycline repressor
notes: revTetR(BD) L14I V20V I22L R94H A97A V99E
B8: TetRrevAF2/5: revTetR(BD) L14R E!9E D95H L101P (protein)
chain: B1 chain with L14R, D95H, R96G, L101P
modifications: Modified tetracycline repressor
notes: revTetR(BD) L14R E!9E D95H L101P
B9: TetRrevAD2/4: revTetR(BD) L17F N18R D53N I59M A61T (protein)
chain: B1 chain with L17F, N18R, D53N, I59M, A61T, R96G
modifications: Modified tetracycline repressor
notes: revTetR(BD) L17F N18R D53N I59M A61T
B10: TetRrevAD2/6: revTetR(BD) N18Y G21E E23K (protein)
chain: B1 chain with N18Y, G21E, E23K, R96G
modifications: Modified tetracycline repressor
notes: revTetR(BD) N18Y G21E E23K

Tested on: tet operator sequence
Assay: β-galactosidase activity of a tetracycline-regulated promoter in transformed E. coli with revTetR, in the presence and absence of anhydrotetracycline (atc)
Assay type: cell-based, Escherichia coli
Conditions: 28° C.
Protocol: The relative activity of revTetR repressors was determined at 28° C. and 37° C. for each clone by measuring β-galactosidase activity of a tetracycline-regulated promoter in transformed Escherichia coli in the presence and absence of the tetracycline analog, anhydrotetracycline (atc). The relative β-galactosidase activity was measured in standard Miller units and is presented as the percent of maximal expression as measured in the absence of Tet repressor. […] With respect to each mutant, as well as the wild-type controls, FIG. 2 provides two horizontal bars; the upper horizontal bar represents the level of β-galactosidase activity in the absence of anhydrotetracycline (−atc) while the lower horizontal bar represents the level of β-galactosidase activity in the presence of anhydrotetracycline (+atc).
The pool of mutated Tet repressors was cloned into plasmid pWH1411 (Baumeister et al., 1992, Proteins: Struct. Funct. Genet. 14: 168-77), which carries a TetR(B) gene, to provide a TetR(BD) chimera that included, as the amino-terminal portion, amino acid residues 1 to 50 of the TetR(B) gene and, as the carboxyl-terminal portion, amino acid residues 51 to 208 of the TetR(D) gene. The resulting plasmid pool was screened in a genetic assay which positively selects for a functional interaction between a Tet repressor and its cognate operator using E. coli strain WH207(λWH25) (the construction of this strain is described in detail in Wissmann et al., (1991) Genetics 128: 225-32). In this E. coli strain, tet operators direct the expression of divergently arranged β-galactosidase (lacZ) and Lac repressor (lacI) genes and the lac regulatory region directs the expression of a galactokinase (galK) gene on plasmid pWH414. Binding of Tet repressors to tet operators turns off transcription of the lacI and lacZ genes. The absence of Lac repressor allows for expression of the galK gene, which enables the E. coli strain to use galactose as a sole carbon source, which serves as one marker. The lacZ^− phenotype serves as a second marker. Thus, bacteria containing Tet repressors which bind to tet operators, have a Gal^+, lacZ^− phenotype. Bacteria containing wild-type Tet repressors have a Gal^+, lacZ^− phenotype in the absence of tetracycline. Modified “reverse” Tet repressors (revTetR) were selected based upon a Gal^+, lacZ^− phenotype in the presence of tetracycline.
The ability of each revTetR clone to bind to its cognate tet operator sequence and regulate transcription in a prokaryotic organism, Escherichia coli, in the presence and absence of a tetracycline analog (anhydrotetracycline, atc) was determined (Table 3, FIG. 2). The relative ratios of non-repressed to repressed levels of transcription for the 15 clones range from about 1.4-fold to about 50-fold at 28° C. and from about 1.3-fold to 40-fold at 37° C. For example, clone 4b comprising an amino acid substitution of glutamic acid for glycine at position 96 (e.g., SEQ ID NO. 24) repressed transcription 19-fold at 37° C. but to a less extent at 28° C. (5.7-fold, Table 3). Furthermore, clones 14, 5a and 7 comprising the arginine for glycine substitution at position 96 and further comprising a substitution or substitutions of serine for threonine at position 103 and valine for glutamic acid at position 114; leucine for proline at position 159; or glutamine to histidine at position 188, respectively, have pronouncedly different activities.
wherein each underlined base was present in approximately 85% of the oligonucleotides, while the remaining approximately 15% of the oligonucleotides contained one of the other three, non-wild type bases at that position. Similar mutagenic, partially randomized oligonucleotides were prepared for mutagenesis of the coding regions for amino acids 14-25 and 93-102. It was predicted that, according to a binomial distribution, each oligonucleotide would contain three to four mutations. […]

In order of rising “repression of transcription (ratio of non-repressed to repressed levels of transcription)” value:
1. B1  5.7 fold
2. B2  18 fold

Same assay, conditions: 28° C.; E. coli; absence vs presence of anhydrotetracycline

In order of rising “Relative Activity of revTetR repressors, 28° C. ratio (non-repressed to repressed levels of transcription)” value:
1. B1  5.7
2. B2  18.1

Same assay, conditions: 37° C.

In order of falling “repression of transcription (ratio of non-repressed to repressed levels of transcription)” value:
1. B2  41 fold
2. B1  19 fold

Same assay, conditions: 37° C.; E. coli; absence vs presence of anhydrotetracycline

In order of rising “Relative Activity of revTetR repressors, 37° C. ratio (non-repressed to repressed levels of transcription)” value:
1. B1  19.0
2. B2  41.1

Same assay, conditions: RevTetR isolate cultured in the absence of anhydrotetracycline (ATC)

In order of falling “β-Galactosidase Activity, Cultured Without ATC” value:
1. B8  97.8373
2. B7  96.2362
3. B10  89.5374
4. B4  85.6043
5. B3  84.85
6. B5  72.199
7. B6  42.088
8. B9  32.2603

Same assay, conditions: RevTetR isolate cultured in the presence of anhydrotetracycline (ATC)

In order of falling “β-Galactosidase Activity, Cultured With ATC” value:
1. B10  3.8811
2. B4  2.5079
3. B8  2.4067
4. B5  2.2753
5. B3  1.6137
6. B6  1.1643
7. B7  1.1578
8. B9  1.0068
